Source: publication PMC11341029 (PLOS Pathogens, 2024)

What was measured:
[1] = target: T1, NPC1-10×His-Flag (human, UniProt O15118 23-1278); assay: SPR; conditions: both partners purified
T1 construct: also called purified NPC1-Flag; full-length NPC1 protein
T1 sequence (looked up): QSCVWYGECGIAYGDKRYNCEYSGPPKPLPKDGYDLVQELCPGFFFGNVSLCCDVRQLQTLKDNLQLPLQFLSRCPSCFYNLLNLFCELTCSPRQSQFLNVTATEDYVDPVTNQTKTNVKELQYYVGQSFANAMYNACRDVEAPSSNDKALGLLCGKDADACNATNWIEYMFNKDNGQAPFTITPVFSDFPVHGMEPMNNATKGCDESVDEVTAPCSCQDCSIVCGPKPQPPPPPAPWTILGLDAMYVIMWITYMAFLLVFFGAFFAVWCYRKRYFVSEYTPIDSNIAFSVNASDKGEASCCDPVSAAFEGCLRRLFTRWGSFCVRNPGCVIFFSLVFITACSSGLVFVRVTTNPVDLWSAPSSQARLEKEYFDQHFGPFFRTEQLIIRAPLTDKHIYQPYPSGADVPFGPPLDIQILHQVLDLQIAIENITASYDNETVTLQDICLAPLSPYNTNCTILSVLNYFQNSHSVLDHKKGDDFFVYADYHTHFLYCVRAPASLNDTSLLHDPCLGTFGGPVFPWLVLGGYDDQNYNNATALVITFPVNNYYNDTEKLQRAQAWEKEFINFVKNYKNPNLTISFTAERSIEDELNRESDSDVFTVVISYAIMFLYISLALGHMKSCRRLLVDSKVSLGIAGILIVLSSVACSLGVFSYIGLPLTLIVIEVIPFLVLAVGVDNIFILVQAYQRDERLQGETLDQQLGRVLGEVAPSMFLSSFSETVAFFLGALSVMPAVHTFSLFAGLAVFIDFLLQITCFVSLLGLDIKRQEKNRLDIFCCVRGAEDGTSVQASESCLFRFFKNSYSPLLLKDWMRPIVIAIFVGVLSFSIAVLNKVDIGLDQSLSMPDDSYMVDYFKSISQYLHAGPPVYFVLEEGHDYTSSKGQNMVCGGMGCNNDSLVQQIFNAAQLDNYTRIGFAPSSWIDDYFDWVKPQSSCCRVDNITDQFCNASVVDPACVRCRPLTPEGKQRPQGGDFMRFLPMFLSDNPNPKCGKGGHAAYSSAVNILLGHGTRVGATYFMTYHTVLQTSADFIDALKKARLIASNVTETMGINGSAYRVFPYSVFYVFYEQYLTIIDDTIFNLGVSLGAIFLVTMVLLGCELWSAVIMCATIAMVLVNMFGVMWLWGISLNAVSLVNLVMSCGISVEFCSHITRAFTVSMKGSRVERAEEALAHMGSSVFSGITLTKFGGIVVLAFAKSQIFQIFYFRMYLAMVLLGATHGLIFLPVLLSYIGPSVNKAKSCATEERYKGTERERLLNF

[2] = target: T2, SLC39A9 (Homo sapiens, UniProt Q9NUM3); assay: SPR
T2 chain: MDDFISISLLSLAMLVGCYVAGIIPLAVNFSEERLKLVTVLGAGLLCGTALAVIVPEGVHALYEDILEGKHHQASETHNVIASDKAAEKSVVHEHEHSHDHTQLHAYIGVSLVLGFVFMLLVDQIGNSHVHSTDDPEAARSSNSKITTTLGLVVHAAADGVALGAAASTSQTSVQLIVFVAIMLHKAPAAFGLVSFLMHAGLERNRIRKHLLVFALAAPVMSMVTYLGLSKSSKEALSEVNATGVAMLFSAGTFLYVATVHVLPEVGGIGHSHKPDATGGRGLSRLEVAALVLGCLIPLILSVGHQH

Binder | Kd [1] [µM] | Kd [2] [µM]
primed EBOV GP (GPcl) (domain or fragment) chain 1: IPLGVIHNSTLQVSDVDKLVCRDKLSSTNQLRSVGLNLEGNGVATDVPSATKRWGFRSGVPPKVVNYEAGEWAENCYNLEIKKPDGSECLPAAPDGIRGFPRCRYVHKVSGTGPCAGDFAFHKEGAFFLYDRLASTVIYRGTTFAEGVVAFLILPQ chain 2: EAIVNAQPKCNPNLHYWTTQDEGAAIGLAWIPYFGPAAEGIYIEGLMHNQDGLICGLRQLANETTQALQLFLRATTELRTFSILNRKAIDFLLQRWGGTCHILGPDCCIEPHDWTKNITDKIDQIIHDFVDKTLPDQGDNDNWWTGWRQ | 18.5 | –
EBOV GP (protein) IPLGVIHNSTLQVSDVDKLVCRDKLSSTNQLRSVGLNLEGNGVATDVPSATKRWGFRSGVPPKVVNYEAGEWAENCYNLEIKKPDGSECLPAAPDGIRGFPRCRYVHKVSGTGPCAGDFAFHKEGAFFLYDRLASTVIYRGTTFAEGVVAFLILPQAKKDFFSSHPLREPVNATEDPSSGYYSTTIRYQATGFGTNETEYLFEVDNLTYVQLESRFTPQFLLQLNETIYTSGKRSNTTGKLIWKVNPEIDTTIGEWAFWETKKNLTRKIRSEELSFTVVSNGAKNISGQSPARTSSDPGTNTTTEDHKIMASENSSAMVQVHSQGREAAVSHLTTLATISTSPQSLTTKPGPDNSTHNTPVYKLDISEATQVEQHHRRTDNDSTASDTPSATTAAGPPKAENTNTSKSTDFLDPATTTSPQNHSETAGNNNTHHQDTGEESASSGKLGLITNTIAGVAGLITGGRRTRREAIVNAQPKCNPNLHYWTTQDEGAAIGLAWIPYFGPAAEGIYIEGLMHNQDGLICGLRQLANETTQALQLFLRATTELRTFSILNRKAIDFLLQRWGGTCHILGPDCCIEPHDWTKNITDKIDQIIHDFVDKTLPDQGDNDNWWTGWRQWIPAGIGVTGVIIAVIALFCICKFVF | – | 3
